Experimental findings from IntAct's records for PubMed 21930971 are described below.

B1: Complement factor H (Homo sapiens), P08603-2 (parent)
chain: MRLLAKIICLMLWAICVAEDCNELPPRRNTEILTGSWSDQTYPEGTQAIYKCRPGYRSLGNVIMVCRKGEWVALNPLRKCQKRPCGHPGDTPFGTFTLTGGNVFEYGVKAVYTCNEGYQLLGEINYRECDTDGWTNDIPICEVVKCLPVTAPENGKIVSSAMEPDREYHFGQAVRFVCNSGYKIEGDEEMHCSDDGFWSKEKPKCVEISCKSPDVINGSPISQKIIYKENERFQYKCNMGYEYSERGDAVCTESGWRPLPSCEEKSCDNPYIPNGDYSPLRIKHRTGDEITYQCRNGFYPATRGNTAKCTSTGWIPAPRCTLKPCDYPDIKHGGLYHENMRRPYFPVAVGKYYSYYCDEHFETPSGSYWDHIHCTQDGWSPAVPCLRKCYFPYLENGYNQNYGRKFVQGKSIDVACHPGYALPKAQTTVTCMENGWSPTPRCIRVSFTL
partner: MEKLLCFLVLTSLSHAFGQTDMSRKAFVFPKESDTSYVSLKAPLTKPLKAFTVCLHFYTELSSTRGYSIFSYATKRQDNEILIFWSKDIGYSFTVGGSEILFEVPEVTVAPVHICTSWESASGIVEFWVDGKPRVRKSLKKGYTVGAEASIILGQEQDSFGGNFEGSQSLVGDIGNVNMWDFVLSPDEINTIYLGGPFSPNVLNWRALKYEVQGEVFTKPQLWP
B2: Complement factor H (Homo sapiens), P08603-1 (parent)
chain: MRLLAKIICLMLWAICVAEDCNELPPRRNTEILTGSWSDQTYPEGTQAIYKCRPGYRSLGNVIMVCRKGEWVALNPLRKCQKRPCGHPGDTPFGTFTLTGGNVFEYGVKAVYTCNEGYQLLGEINYRECDTDGWTNDIPICEVVKCLPVTAPENGKIVSSAMEPDREYHFGQAVRFVCNSGYKIEGDEEMHCSDDGFWSKEKPKCVEISCKSPDVINGSPISQKIIYKENERFQYKCNMGYEYSERGDAVCTESGWRPLPSCEEKSCDNPYIPNGDYSPLRIKHRTGDEITYQCRNGFYPATRGNTAKCTSTGWIPAPRCTLKPCDYPDIKHGGLYHENMRRPYFPVAVGKYYSYYCDEHFETPSGSYWDHIHCTQDGWSPAVPCLRKCYFPYLENGYNQNYGRKFVQGKSIDVACHPGYALPKAQTTVTCMENGWSPTPRCIRVKTCSKSSIDIENGFISESQYTYALKEKAKYQCKLGYVTADGETSGSITCGKDGWSAQPTCIKSCDIPVFMNARTKNDFTWFKLNDTLDYECHDGYESNTGSTTGSIVCGYNGWSDLPICYERECELPKIDVHLVPDRKKDQYKVGEVLKFSCKPGFTIVGPNSVQCYHFGLSPDLPICKEQVQSCGPPPELLNGNVKEKTKEEYGHSEVVEYYCNPRFLMKGPNKIQCVDGEWTTLPVCIVEESTCGDIPELEHGWAQLSSPPYYYGDSVEFNCSESFTMIGHRSITCIHGVWTQLPQCVAIDKLKKCKSSNLIILEEHLKNKKEFDHNSNIRYRCRGKEGWIHTVCINGRWDPEVNCSMAQIQLCPPPPQIPNSHNMTTTLNYRDGEKVSVLCQENYLIQEGEEITCKDGRWQSIPLCVEKIPCSQPPQIEHGTINSSRSSQESYAHGTKLSYTCEGGFRISEENETTCYMGKWSSPPQCEGLPCKSPPEISHGVVAHMSDSYQYGEEVTYKCFEGFGIDGPAIAKCLGEKWSHPPSCIKTDCLSLPSFENAIPMGEKKDVYKAGEQVTYTCATYYKMDGASNVTCINSRWTGRPTCRDTSCVNPPTVQNAYIVSRQMSKYPSGERVRYQCRSPYEMFGDEEVMCLNGNWTEPPQCKDSTGKCGPPPPIDNGDITSFPLSVYAPASSVEYQCQNLYQLEGNKRITCRNGQWSEPPKCLHPCVISREIMENYNIALRWTAKQKLYSRTGESVEFVCKRGYRLSSRSHTLRTTCWDGKLEYPTCAKR
partner: B1 partner

Variants of B1 are the subject of one experiment. Particulars: with crp_human CRP.
In the case of Y402H, the “effect of a mutation on the interaction” value is “decreasing interaction strength”.

The next experiment covers variants of B2. Particulars: with crp_human CRP.
Regarding Y402H, the “effect of a mutation on the interaction” value is listed as “decreasing interaction strength”.
